{"source": "paper PMC9828337", "about": "(Angewandte Chemie (International Ed. in English), 2022)", "binders": {"B1": {"name": "VenL kinase domain (residues 213–513) (domain or fragment)", "chain": "DGSREARGAGAPVLLGGRFAVREAIRHTNKGGVYRGSDVRTGALVVIKEARPHVEADASGHDVRDWLRTEARTLERLRGTGLAPEPLALFEHGGHLFLAQQEVPGVALRTWVAEHFRDAGAERYRVDARAQVGRLVELVAAAHAHGCVLRDFTPGNVMVRPDGELRLIDLELAVLEGDAARPTRVGTPGFSAPERLTGAPVSPTGDYYSLGATACFVLAGKVPNLLPEEPATRAPEQRLAAWLSACAGPLRLPDGLAEMVLGLMKDAPAERWDPARAREALRRADRDDPVTGKPEDSKGSK"}}, "key": {"[1]": {"biological_target": "CurKC lyase domain (residues 1–217) (Thermomonospora curvata DSM43183, fluorophore label in the MST assays (position not given))", "test": "MST"}, "[2]": {"biological_target": "T1, VenL lyase domain (residues 1–212)", "T1 chain": "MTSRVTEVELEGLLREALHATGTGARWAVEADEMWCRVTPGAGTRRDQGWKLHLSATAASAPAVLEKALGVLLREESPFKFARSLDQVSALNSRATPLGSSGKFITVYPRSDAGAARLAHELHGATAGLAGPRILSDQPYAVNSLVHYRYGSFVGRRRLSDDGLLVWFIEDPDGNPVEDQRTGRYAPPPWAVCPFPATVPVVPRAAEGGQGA", "test": "MST"}}}
{"binder": "B1", "values": [{"measurement": "Kd", "setting": "[1]", "result": "24.3 ± 3.5", "unit": "µM"}, {"measurement": "Kd", "setting": "[2]", "result": "32.3 ± 2.9", "unit": "µM"}]}
